Data on one substance can be found in PMC6587469.

Where “and” joins values, the source holds several entries; their conditions need not be identical. Identical values can stand only once.

Experiment [1] addresses MabSelect SuRe protein A ligand: tetrameric chain of Z-domains (recombinant form of the B domain of (Staphylococcus aureus)). The experiment is described as follows: SAXS.
Experiment [2] shares this target. In words: batch adsorption isotherm.

In the case of Trastuzumab (antibody), the stoichiometry N (antibody : protein A chain) in experiment [1] was 1 and 2. The stoichiometry N (antibody molecules per ligand) in experiment [2] stood at 2.
